For assay [1], the target named is VEGF-165 (R&D Systems) (human). Kind of assay: MSD receptor binding inhibition assay; VEGFR2 coated at […]; anti-VEGF molecule added 10 min before VEGF-165 (10 ng/ml final); 2 h room temperature; bound VEGF detected with biotinylated anti-VEGF and streptavidin sulfo-TAG.
Assay [2] addresses VEGF-165 (R&D Systems) (human). As to the kind of experiment: MSD receptor binding inhibition assay; VEGFR1 coated at […]; anti-VEGF molecule added 10 min before VEGF-165 (10 ng/ml final); 2 h room temperature; bound VEGF detected with biotinylated anti-VEGF and streptavidin sulfo-TAG.
A further assay concerns the target Murine VEGF-A164 (mouse). Kind of assay: MSD (meso scale discovery) plate binding assay; VEGF ligand coated at 2 μg/ml on MSD high bind plate; anti-VEGF molecule added in 0.1% BSA/PBS, 2 h room temperature; detection with sulfo-TAG anti-human IgG (Fc-specific); n = 3.
Assay [3] concerns the target Human VEGF_(1–165) (human). The description is as above.
In a further assay the target is Human VEGF-A121 (human). Described as above.
In assay [4] the target is Human VEGF_(1–165) (human). As to the kind of experiment: SEC-MALS; input proteins and complexes at input molar ratios 1:2, 2:1, 4:1 (dual dAb-VEGF) and 1:1, 1:2, 2:1, 4:1 (bevacizumab-VEGF); Superdex 200 column; PBS pH 7.4.
In assay [5] the target is VEGF dual dAb (human). Kind of assay: SPR; Biacore T200, C1 chip; VEGF dual dAb captured on immobilised protein A (20 RU); VEGF injected at 0.03-32 nM (32 nM curves removed), 60 μl/min; 37 °C, HBS-EP; 1:1 model; triplicate. (Surface plasmon resonance follows binding to a sensor surface in real time, without labels.)
Sequence of VEGF dual dAb (human) (heavy, as listed by the source, chain 1 of 2): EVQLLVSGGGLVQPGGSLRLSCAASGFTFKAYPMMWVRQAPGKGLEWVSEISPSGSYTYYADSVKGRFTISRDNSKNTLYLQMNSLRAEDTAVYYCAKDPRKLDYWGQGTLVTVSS
Sequence of VEGF dual dAb (human) (light, as listed by the source, chain 2 of 2): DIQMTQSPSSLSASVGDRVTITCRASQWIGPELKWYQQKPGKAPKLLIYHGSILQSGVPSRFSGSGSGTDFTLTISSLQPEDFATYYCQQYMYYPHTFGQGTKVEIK
The target in assay [6] is VEGF dual dAb in complex with human VEGF-165 (human). As to the kind of experiment: SPR; ProteOn GLM chip; VEGF dual dAb alone or in complex with VEGF-165 immobilised by amine coupling; FcRn injected at 3.9-1000 nM; 25 °C, HBS-EP pH 6; equilibrium model.
Sequence of VEGF dual dAb in complex with human VEGF-165 (human) (heavy, as listed by the source, chain 1 of 2): as the sequence (heavy, as listed by the source, chain 1 of 2) above
Sequence of VEGF dual dAb in complex with human VEGF-165 (human) (light, as listed by the source, chain 2 of 2): as the sequence (light, as listed by the source, chain 2 of 2) above
Assay [7] addresses VEGF dual dAb (human). The assay is described as above.

Sequence of Aflibercept (Fc fusion) (chain): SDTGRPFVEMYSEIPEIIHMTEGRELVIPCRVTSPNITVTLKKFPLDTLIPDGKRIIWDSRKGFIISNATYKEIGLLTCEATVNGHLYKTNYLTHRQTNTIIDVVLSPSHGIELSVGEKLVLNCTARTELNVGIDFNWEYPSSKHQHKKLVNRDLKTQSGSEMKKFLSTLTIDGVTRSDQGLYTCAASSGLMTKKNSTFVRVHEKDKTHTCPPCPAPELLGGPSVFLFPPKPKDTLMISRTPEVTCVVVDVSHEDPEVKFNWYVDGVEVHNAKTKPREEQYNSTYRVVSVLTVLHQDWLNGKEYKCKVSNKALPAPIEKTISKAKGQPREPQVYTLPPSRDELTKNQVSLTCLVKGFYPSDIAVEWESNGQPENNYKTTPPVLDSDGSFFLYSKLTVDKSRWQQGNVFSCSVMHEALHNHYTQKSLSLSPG
Sequence of Human FcRn (P55899 24-365): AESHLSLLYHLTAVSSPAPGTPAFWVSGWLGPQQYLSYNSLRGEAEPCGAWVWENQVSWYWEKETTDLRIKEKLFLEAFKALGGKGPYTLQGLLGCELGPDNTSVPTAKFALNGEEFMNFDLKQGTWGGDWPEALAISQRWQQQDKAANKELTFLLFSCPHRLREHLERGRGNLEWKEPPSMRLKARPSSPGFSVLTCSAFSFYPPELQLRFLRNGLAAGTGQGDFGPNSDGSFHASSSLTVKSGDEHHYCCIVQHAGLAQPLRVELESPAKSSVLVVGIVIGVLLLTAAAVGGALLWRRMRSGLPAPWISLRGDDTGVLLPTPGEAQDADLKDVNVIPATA
Sequence of Human FcRn (P61769 21-119): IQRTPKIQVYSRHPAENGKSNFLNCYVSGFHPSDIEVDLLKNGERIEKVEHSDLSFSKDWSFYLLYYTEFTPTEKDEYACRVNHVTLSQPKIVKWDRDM

Usually IC50 stands for the concentration needed to halve the response being measured. The EC50 is the midpoint of the concentration-response curve. A low value points to an effect from little substance. Turning to Aflibercept (Fc fusion), the figures for the IC50 in [1] and in [2] were 0.032 nM and 0.075 nM, respectively. In addition, the EC50 with Murine VEGF-A164 (mouse) is 0.095 nM; in assay [3], 0.086 nM; in the assay with Human VEGF-A121 (human), 0.317 nM.

A word on the stoichiometry N: it is the number of molecules, sites or subunits per partner or assembly. Broadly, the Kd is the equilibrium constant for the complex coming apart. A higher Kd goes with weaker binding. As usually defined, the koff is the rate constant with which the complex falls apart. A lower koff goes with slow dissociation. The kon is the rate constant with which the complex forms. Read a low kon as slower complex formation. Human VEGF_(1–165) (ligand): in assay [4], the stoichiometry N is 2. In the assay with VEGF dual dAb (human) [5], this substance registered a Kd of 0.00717 nM, a koff of 4.76e-05 s⁻¹ and an on-rate constant (kon) of 6.63e+06 M⁻¹ s⁻¹.

In the assay with VEGF dual dAb (human) [5], Murine VEGF-A164 (ligand) yielded a Kd of 0.0065 nM, an off-rate (koff) of 5.19e-05 s⁻¹ and a kon of 8e+06 M⁻¹ s⁻¹.

“Human FcRn (from UniProt P55899 24-365; P61769 21-119) (receptor)”: the dissociation constant (Kd) was determined as 479 nM in assay [6] and 325 nM with VEGF dual dAb (human) [7].

As for “Human VEGF-A165, E. coli expressed (ligand)”, in the assay with VEGF dual dAb (human) [5], the Kd was found to be 0.00994 nM, the koff came to 8.08e-05 s⁻¹ and the on-rate (kon) was 8.13e+06 M⁻¹ s⁻¹.

(Values after publication PMC4786692.)
